{"source": "paper PMC6028919", "about": "“Scc2 Is a Potent Activator of Cohesin’s ATPase that Promotes Loading by Binding Scc1 without Pds5” (Molecular Cell, 2018)", "key": {"[1]": {"target": "cohesin tetramer (Smc1, Smc3, Scc1, Scc3) (S. cerevisiae) (UniProt P32908)"}, "[2]": {"target": "T1, cohesin tetramer with scc1Δ152–256 (Smc1, Smc3, Scc1Δ152-256, Scc3) (S. cerevisiae, UniProt P32908 1-1225; P47037 1-1230; Q12158 1-566; P40541 1-1150, Δ152-256)", "T1 construct": "Smc1, S. cerevisiae, synthetic codon-optimised gene; Smc3, S. cerevisiae, synthetic codon-optimised gene; Scc1 (kleisin; Mcd1), S. cerevisiae, synthetic codon-optimised gene; Scc3, S. cerevisiae, synthetic codon-optimised gene; source: Sf9, co-expressed (baculovirus), purified (StrepTrap, gel filtration); not shown: 2xStrepII, C-terminal, kept; copies: + + +", "experiment": "co-IP; GFP-Scc2 held by anti-GFP antibody on Protein G Dynabeads; tetramers and GFP-Scc2 in an ATPase reaction, 25°C, 45 min, then beads 45 min at room temperature; washes with 100 mM NaCl; Coomassie-stained SDS-PAGE", "conditions": "both partners purified"}, "[3]": {"target": "T2, cohesin tetramer (Smc1, Smc3, Scc1, Scc3) (S. cerevisiae, UniProt P32908 1-1225; P47037 1-1230; Q12158 1-566; P40541 1-1150)", "T2 construct": "Smc1, S. cerevisiae, synthetic codon-optimised gene; Smc3, S. cerevisiae, synthetic codon-optimised gene; Scc1 (kleisin; Mcd1), S. cerevisiae, synthetic codon-optimised gene; Scc3, S. cerevisiae, synthetic codon-optimised gene; also called wild-type tetramers; source: Sf9, co-expressed (baculovirus), purified (StrepTrap, gel filtration); not shown: 2xStrepII, C-terminal, …", "T2 sequence (P32908 whole entry, chain 1 of 4)": "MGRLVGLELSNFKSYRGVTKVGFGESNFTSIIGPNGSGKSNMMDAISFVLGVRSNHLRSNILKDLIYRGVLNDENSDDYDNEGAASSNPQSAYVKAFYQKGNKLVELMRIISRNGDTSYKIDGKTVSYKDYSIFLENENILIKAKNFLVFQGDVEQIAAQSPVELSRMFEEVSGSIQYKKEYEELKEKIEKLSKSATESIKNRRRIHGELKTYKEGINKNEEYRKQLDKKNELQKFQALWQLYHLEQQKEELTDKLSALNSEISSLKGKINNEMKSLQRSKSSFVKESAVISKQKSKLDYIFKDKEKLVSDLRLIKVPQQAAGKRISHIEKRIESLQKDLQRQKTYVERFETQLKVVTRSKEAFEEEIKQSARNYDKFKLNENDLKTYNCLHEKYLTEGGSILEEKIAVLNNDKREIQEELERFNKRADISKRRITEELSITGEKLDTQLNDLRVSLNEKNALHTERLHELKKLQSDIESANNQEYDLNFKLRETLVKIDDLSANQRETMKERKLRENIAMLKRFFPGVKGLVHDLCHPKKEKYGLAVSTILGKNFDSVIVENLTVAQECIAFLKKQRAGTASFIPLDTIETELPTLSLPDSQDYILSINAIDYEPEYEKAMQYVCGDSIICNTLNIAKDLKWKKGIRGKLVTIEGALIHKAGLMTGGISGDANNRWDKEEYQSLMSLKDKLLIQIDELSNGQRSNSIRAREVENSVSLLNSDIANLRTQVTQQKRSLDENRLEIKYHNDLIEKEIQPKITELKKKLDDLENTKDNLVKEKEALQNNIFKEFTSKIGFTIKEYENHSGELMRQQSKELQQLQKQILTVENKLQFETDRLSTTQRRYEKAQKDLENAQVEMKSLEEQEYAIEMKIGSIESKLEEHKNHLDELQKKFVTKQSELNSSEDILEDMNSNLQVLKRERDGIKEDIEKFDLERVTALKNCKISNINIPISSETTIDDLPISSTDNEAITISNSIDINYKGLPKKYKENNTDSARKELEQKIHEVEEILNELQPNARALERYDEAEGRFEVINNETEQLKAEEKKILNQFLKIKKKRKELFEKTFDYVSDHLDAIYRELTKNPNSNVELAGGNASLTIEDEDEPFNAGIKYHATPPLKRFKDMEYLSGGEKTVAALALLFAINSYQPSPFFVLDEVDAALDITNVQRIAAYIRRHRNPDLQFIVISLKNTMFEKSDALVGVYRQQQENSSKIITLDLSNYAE", "T2 sequence (P47037 whole entry, chain 2 of 4)": "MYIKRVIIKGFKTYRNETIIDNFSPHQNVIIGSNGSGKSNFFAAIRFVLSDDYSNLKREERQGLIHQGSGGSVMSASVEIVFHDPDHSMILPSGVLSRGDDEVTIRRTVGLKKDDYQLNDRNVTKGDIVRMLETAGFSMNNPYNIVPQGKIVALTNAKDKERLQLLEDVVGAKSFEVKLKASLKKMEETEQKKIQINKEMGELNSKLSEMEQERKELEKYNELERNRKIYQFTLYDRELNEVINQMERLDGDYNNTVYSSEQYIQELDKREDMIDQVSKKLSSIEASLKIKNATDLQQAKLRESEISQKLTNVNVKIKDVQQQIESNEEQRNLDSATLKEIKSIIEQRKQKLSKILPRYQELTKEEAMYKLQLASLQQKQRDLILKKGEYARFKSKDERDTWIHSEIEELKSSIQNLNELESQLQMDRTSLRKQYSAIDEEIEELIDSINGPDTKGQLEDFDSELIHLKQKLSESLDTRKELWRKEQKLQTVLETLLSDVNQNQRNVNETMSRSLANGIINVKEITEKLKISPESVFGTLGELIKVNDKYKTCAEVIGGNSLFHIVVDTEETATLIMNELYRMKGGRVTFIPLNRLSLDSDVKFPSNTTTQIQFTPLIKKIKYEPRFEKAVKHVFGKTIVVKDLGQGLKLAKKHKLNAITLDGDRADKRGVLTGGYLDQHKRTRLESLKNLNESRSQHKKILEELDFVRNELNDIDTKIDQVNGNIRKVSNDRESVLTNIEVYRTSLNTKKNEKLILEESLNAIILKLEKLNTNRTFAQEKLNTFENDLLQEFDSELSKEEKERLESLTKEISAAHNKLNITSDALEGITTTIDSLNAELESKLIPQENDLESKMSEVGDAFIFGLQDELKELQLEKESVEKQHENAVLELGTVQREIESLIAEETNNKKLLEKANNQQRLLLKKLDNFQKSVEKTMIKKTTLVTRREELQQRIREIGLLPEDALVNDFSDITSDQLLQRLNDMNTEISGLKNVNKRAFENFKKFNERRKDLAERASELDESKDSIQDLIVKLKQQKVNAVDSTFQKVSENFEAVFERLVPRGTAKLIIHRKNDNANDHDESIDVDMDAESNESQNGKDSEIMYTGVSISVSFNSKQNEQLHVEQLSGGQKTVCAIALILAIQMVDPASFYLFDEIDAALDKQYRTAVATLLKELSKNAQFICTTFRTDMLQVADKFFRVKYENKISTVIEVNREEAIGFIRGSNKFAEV", "T2 sequence (Q12158 whole entry, chain 3 of 4)": "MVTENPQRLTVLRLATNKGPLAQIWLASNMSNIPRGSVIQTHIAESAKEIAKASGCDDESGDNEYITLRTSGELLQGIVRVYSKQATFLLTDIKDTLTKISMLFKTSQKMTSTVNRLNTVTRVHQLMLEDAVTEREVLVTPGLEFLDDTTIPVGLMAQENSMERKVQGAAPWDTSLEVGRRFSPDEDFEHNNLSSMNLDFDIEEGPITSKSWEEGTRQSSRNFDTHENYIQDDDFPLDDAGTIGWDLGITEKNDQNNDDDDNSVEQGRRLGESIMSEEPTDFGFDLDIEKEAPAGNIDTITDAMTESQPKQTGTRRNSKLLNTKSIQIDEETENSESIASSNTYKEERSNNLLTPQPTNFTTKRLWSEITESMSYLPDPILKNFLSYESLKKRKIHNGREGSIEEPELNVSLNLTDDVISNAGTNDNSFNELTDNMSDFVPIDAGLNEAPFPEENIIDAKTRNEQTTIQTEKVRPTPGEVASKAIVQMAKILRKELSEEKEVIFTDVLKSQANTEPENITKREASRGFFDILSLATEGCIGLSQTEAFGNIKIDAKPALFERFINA", "T2 sequence (P40541 whole entry, chain 4 of 4)": "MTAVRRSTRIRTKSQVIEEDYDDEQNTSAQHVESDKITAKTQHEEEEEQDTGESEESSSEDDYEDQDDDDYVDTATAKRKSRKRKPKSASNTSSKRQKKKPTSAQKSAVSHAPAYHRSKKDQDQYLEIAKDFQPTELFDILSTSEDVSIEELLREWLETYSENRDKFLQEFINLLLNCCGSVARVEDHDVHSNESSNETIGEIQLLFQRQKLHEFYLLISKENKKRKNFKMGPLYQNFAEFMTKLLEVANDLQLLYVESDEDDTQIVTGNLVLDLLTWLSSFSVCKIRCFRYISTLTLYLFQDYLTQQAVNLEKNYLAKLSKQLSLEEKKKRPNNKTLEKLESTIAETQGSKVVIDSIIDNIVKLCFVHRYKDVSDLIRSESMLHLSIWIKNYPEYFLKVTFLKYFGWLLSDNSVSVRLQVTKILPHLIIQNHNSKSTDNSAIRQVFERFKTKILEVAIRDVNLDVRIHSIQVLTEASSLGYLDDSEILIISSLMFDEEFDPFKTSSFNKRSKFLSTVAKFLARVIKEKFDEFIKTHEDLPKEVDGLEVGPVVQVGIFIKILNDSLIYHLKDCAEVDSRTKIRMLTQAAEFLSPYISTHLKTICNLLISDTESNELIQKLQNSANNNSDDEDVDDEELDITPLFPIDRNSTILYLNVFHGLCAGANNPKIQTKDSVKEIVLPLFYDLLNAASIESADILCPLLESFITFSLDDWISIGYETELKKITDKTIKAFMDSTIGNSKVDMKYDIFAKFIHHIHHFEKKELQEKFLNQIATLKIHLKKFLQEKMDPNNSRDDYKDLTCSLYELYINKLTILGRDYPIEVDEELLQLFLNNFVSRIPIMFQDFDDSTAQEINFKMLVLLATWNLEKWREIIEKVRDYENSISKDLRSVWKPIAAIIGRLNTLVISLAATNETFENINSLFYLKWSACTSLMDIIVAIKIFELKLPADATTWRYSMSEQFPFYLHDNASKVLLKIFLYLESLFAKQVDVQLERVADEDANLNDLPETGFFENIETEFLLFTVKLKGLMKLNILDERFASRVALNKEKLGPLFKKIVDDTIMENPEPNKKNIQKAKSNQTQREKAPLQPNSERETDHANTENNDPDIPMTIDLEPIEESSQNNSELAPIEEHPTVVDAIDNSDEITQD", "experiment": "co-IP; GFP-Scc2 held by anti-GFP antibody on Protein G Dynabeads; tetramers and GFP-Scc2 in an ATPase reaction, 25°C, 45 min, then beads 45 min at room temperature; washes with 100 mM NaCl; Coomassie-stained SDS-PAGE", "conditions": "both partners purified"}}}
{"binder": "His6-Pds5 (natural protein) MAKGAVTKLKFNSPIISTSDQLISTNELLDRLKALHEELASLDQDNTDLTGLDKYRDALVSRKLLKHKDVGIRAFTACCLSDILRLYAPDAPYTDAQLTDIFKLVLSQFEQLGDQENGYHIQQTYLITKLLEYRSIVLLADLPSSNNLLIELFHIFYDPNKSFPARLFNVIGGILGEVISEFDSVPLEVLRLIFNKFLTYNPNEIPEGLNVTSDCGYEVSLILCDTYSNRMSRHLTKYYSEIIHEATNDDNNSRLLTVVVKLHKLVLRLWETVPELINAVIGFIYHELSSENELFRKEATKLIGQILTSYSDLNFVSTHSDTFKAWISKIADISPDVRVEWTESIPQIIATREDISKELNQALAKTFIDSDPRVRRTSVMIFNKVPVTEIWKNITNKAIYTSLLHLAREKHKEVRELCINTMAKFYSNSLNEIERTYQNKEIWEIIDTIPSTLYNLYYINDLNINEQVDSVIFEYLLPFEPDNDKRVHRLLTVLSHFDKKAFTSFFAFNARQIKISFAISKYIDFSKFLNNQESMSSSQGPIVMNKYNQTLQWLASGLSDSTKAIDALETIKQFNDERIFYLLNACVTNDIPFLTFKNCYNELVSKLQTPGLFKKYNISTGASIMPRDIAKVIQILLFRASPIIYNVSNISVLLNLSNNSDAKQLDLKRRILDDISKVNPTLFKDQIRTLKTIIKDLDDPDAEKNDNLSLEEALKTLYKASKTLKDQVDFDDTFFFTKLYDFAVESKPEITKYATKLIALSPKAEETLKKIKIRILPLDLQKDKYFTSHIIVLMEIFKKFPHVLNDDSTDIISYLIKEVLLSNQVVGDSKKEIDWVEDSLLSDTKYSAIGNKVFTLKLFTNKLRSIAPDVPRDELAESFTEKTMKLFFYLIASGGELISEFNKEFYPTPSNYQTKLRCVAGIQVLKLARISNLNNFIKPSDIIKLINLVEDESLPVRKTFLEQLKDYVANELISIKFLPLVFFTAYEPDVELKTTTKIWINFTFGLKSFKKGTIFERALPRLIHAIAHHPDIVGGLDSEGDAYLNALTTAIDYLLFYFDSIAAQENFSLLYYLSERVKNYQDKLVEDEIDEEEGPQKEEAPKKHRPYGQKMYIIGELSQMILLNLKEKKNWQHSAYPGKLNLPSDLFKPFATVQEAQLSFKTYIPESLTEKIQNNIKAKIGRILHTSQTQRQRLQKRLLAHENNESQKKKKKVHHARSQADDEEGDGDRESDSDDDSYSPSNKNETKKGHENIVMKKLRVRKEVDYKDDEDDDIEMT", "values": [{"measurement": "Scc2-stimulated ATPase activity of cohesin tetramers with a three-fold molar excess of Pds5, in the absence of DNA", "setting": "[1]", "result": 2, "unit": "fold"}]}
{"binder": "GFP-ΔN132-Scc2-1xStrepII (domain or fragment, S. cerevisiae, UniProt Q04002 133-1493, looked up, Scc2, S. cerevisiae, synthetic codon-optimised gene; also called GFP-Scc2; Scc2-GFP; source: Sf9, baculovirus, purified (StrepTrap, gel filtration); not shown: GFP, N-terminal, kept; StrepII, C-terminal, kept) KSEIVSRPEAKHKLESVTSNAGNLSFNDNSSNKKTKTSTGVTMTQANLAEQYLNDLKNILDIVGFDQNSAEIGNIEYWLQLPNKKFVLTTNCLTKLQMTIKNITDNPQLSNSIEITWLLRLLDVMVCNIKFSKSSLKMGLDDSMLRYIALLSTIVLFNIFLLGKNDSNLHRESYIMEPVNFLSDLIESLKILTIEYGSLKIEFDTFQEALELLPKYIRNGPFLDDNVTAKLVYIFSDLLMNNDIEATTNIQFQSFWDNVKRISSDILVSLFGSFDQQRGFIIEELLSHIEKLPTKRIQKKLRKVGNQNIYITDFTFTLMSMLENINCYSFCNQMKDIAPENIDLLKNEYKKQEEFLFNIVEHINDTILERFFKNPSALRYVIDNFVQDLLLLISSPQWPVTEKILSSLLKRLLSVYSPSMQVSANIETICLQLIGNIGSTIFDIKCSTRDHEDNNLIKMINYPETLPHFFKSFEECIAYNETIKCRRSATRFLWNLRLGTILILEEYTKDAKEQIITVDNELKKILEQIKDGGLGPELENREADFSTIKLDYFSILHAFELLNLYDPYLKLILSLLAKDKIKLRSTAIKCLSMLASKDKVILSNPMVKETIHRRLNDSSASVKDAILDLVSINSSYFEFYQQINNNYNDDSIMVRKHVLRINEKMYDETNDIVTKVYVIARILMKIEDEEDNIIDMARLILLNRWILKVHEVLDQPEKLKEISSSVLLVMSRVAIMNEKCSQLFDLFLNFYLLNKEAHSKEAYDKITHVLTILTDFLVQKIVELNSDDTNEKNSIVDKQNFLNLLAKFADSTVSFLTKDHITALYPYMVSDEKSDFHYYILQVFRCTFEKLANFKQKFLYDLETTLLSRLPKMNVREIDEAMPLIWSVATHRHDTARVAKACSSCLSHLHPYINKANNEEAAIVVDGKLQRLIYLSTGFARFCFPKPSNDKIAFLQEGETLYEHITKCLLVLSKDKITHVIRRVAVKNLTKLCGNHPKLFNSRHVLHLLDKEFQSDQLDIKLVILESLYDLFLLEERKSVRNTGVNSTLSSNSILKKKLLKTNRVEFANDGVCSALATRFLDNILQLCLLRDLKNSLVAIRLLKLILKFGYTNPSHSIPTVIALFASTSQYIRHVAYELLEDLFEKYETLVFSSLSRGVTKAIHYSIHTDEKYYYKHDHFLSLLEKLCGTGKKNGPKFFKVLKRIMQSYLDDITDLTSTNSSVQKSIFVLCTNISNITFVSQYDLVSLLKTIDLTTDRLKEVIMDEIGDNVSSLSVSEEKLSGIILIQLSLQDLGTYLLHLYGLRDDVLLLDIVEESELKNKQLPAKKPDISKFSAQLENIEQYSSNGKLLTYFRKHVKDT", "values": [{"measurement": "binding result", "setting": "[2]", "result": "binds"}, {"measurement": "binding result", "setting": "[3]", "result": "binds"}]}
